From publication PMC7261170 (Nucleic Acids Research, 2020) come the findings set out here.

In the test the target is T1, CBP-CWC22-S (residues 100-665) (human, UniProt Q9HCG8 100-665).
T1 sequence (looked up): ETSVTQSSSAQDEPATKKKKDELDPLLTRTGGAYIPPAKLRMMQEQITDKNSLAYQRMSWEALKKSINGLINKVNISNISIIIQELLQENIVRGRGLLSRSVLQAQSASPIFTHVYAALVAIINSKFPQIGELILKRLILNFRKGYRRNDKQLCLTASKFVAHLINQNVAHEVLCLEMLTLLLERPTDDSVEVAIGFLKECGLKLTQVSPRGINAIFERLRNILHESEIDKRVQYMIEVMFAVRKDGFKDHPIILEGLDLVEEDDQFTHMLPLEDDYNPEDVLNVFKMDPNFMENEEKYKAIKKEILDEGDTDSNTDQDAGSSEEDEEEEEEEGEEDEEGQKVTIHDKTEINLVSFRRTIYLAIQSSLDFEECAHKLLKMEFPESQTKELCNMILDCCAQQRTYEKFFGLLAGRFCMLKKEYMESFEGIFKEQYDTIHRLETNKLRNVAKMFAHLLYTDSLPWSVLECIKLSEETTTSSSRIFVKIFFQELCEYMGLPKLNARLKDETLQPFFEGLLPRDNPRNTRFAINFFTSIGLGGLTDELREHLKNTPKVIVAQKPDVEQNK
Nature of the test: pull-down.

B1: PTS-CWC27 (1-472) (natural protein, human, UniProt Q6UX04 1-472, looked up)
chain: MSNIYIQEPPTNGKVLLKTTAGDIDIELWSKEAPKACRNFIQLCLEAYYDNTIFHRVVPGFIVQGGDPTGTGSGGESIYGAPFKDEFHSRLRFNRRGLVAMANAGSHDNGSQFFFTLGRADELNNKHTIFGKVTGDTVYNMLRLSEVDIDDDERPHNPHKIKSCEVLFNPFDDIIPREIKRLKKEKPEEEVKKLKPKGTKNFSLLSFGEEAEEEEEEVNRVSQSMKGKSKSSHDLLKDDPHLSSVPVVESEKGDAPDLVDDGEDESAEHDEYIDGDEKNLMRERIAKKLKKDTSANVKSAGEGEVEKKSVSRSEELRKEARQLKRELLAAKQKKVENAAKQAEKRSEEEEAPPDGAVAEYRREKQKYEALRKQQSKKGTSREDQTLALLNQFKSKLTQAIAETPENDIPETEVEDDEGWMSHVLQFEDKSRKVKDASMQDSDTFEIYDPRNPVNKRRREESKKLMREKKERR
With B1, the binding result was “binds”.

B2: CWC27-C (354-472) (domain or fragment, human, UniProt Q6UX04 354-472, looked up)
chain: DGAVAEYRREKQKYEALRKQQSKKGTSREDQTLALLNQFKSKLTQAIAETPENDIPETEVEDDEGWMSHVLQFEDKSRKVKDASMQDSDTFEIYDPRNPVNKRRREESKKLMREKKERR
With B2, the binding result is “binds”.
